# According to IntAct's records for PubMed 35512704:
# B1: Mothers against decapentaplegic homolog 4 (Homo sapiens), Q13485 (parent)
# chain: MDNMSITNTPTSNDACLSIVHSLMCHRQGGESETFAKRAIESLVKKLKEKKDELDSLITAITTNGAHPSKCVTIQRTLDGRLQVAGRKGFPHVIYARLWRWPDLHKNELKHVKYCQYAFDLKCDSVCVNPYHYERVVSPGIDLSGLTLQSNAPSSMMVKDEYVHDFEGQPSLSTEGHSIQTIQHPPSNRASTETYSTPALLAPSESNATSTANFPNIPVASTSQPASILGGSHSEGLLQIASGPQPGQQQNGFTGQPATYHHNSTTTWTGSRTAPYTPNLPHHQNGHLQHHPPMPPHPGHYWPVHNELAFQPPISNHPAPEYWCSIAYFEMDVQVGETFKVPSSCPIVTVDGYVDPSGGDRFCLGQLSNVHRTEAIERARLHIGKGVQLECKGEGDVWVRCLSDHAVFVQSYYLDREAGRAPGDAVHKIYPSAYIKVFDLRQCHRQMQQQAATAQAAAAAQAAAVAGNIPGPGSVGGIAPAISLSAAAGIGVDDLRRLCILRMSFVKGWGPDYPRQSIKETPCWIEIHLHRALQLLDEVLHTMPIADPQPLD
# Variants of: B1
# Conditions: with ros1_human ROS1, P08922
row,Variant,effect of a mutation on the interaction
1,R361C,with no effect

# Variants of: B1
# Conditions: with ks6b1_human RPS6KB1, P23443
row,Variant,effect of a mutation on the interaction
1,R361C,with no effect

# Variants of: B1
# Conditions: with runx1_human RUNX1, Q01196
row,Variant,effect of a mutation on the interaction
1,R361C,with no effect

# Variants of: B1
# Conditions: with ruvb1_human RUVBL1, Q9Y265
# Sequence of ruvb1_human RUVBL1, Q9Y265 (Q9Y265 whole entry): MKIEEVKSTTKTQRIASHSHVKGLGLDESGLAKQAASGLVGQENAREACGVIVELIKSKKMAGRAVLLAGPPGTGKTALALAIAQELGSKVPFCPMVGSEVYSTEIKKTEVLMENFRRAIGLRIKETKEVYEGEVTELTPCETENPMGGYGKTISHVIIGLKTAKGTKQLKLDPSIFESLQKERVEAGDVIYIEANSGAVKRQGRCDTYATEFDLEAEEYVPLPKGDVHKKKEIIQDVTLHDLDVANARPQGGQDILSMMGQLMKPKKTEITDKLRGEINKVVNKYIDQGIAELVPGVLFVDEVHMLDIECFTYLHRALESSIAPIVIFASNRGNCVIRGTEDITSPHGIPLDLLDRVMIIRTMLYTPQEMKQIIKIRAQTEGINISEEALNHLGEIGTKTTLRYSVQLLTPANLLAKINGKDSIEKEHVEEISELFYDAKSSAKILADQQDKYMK
row,Variant,effect of a mutation on the interaction
1,R361C,with no effect

# Variants of: B1
# Conditions: with rxra_human RXRA
row,Variant,effect of a mutation on the interaction
1,R361C,with no effect

# Variants of: B1
# Conditions: with sdha_human SDHA
row,Variant,effect of a mutation on the interaction
1,R361C,with no effect

# Variants of: B1
# Conditions: with setb1_human SETDB1, Q15047
row,Variant,effect of a mutation on the interaction
1,R361C,with no effect

# Variants of: B1
# Conditions: with sf3b1_human SF3B1, O75533
row,Variant,effect of a mutation on the interaction
1,R361C,with no effect

# Variants of: B1
# Conditions: with skp2_human SKP2, Q13309
row,Variant,effect of a mutation on the interaction
1,R361C,with no effect

# Variants of: B1
# Conditions: with smad1_human SMAD1, Q15797
# Sequence of smad1_human SMAD1, Q15797 (Q15797 whole entry): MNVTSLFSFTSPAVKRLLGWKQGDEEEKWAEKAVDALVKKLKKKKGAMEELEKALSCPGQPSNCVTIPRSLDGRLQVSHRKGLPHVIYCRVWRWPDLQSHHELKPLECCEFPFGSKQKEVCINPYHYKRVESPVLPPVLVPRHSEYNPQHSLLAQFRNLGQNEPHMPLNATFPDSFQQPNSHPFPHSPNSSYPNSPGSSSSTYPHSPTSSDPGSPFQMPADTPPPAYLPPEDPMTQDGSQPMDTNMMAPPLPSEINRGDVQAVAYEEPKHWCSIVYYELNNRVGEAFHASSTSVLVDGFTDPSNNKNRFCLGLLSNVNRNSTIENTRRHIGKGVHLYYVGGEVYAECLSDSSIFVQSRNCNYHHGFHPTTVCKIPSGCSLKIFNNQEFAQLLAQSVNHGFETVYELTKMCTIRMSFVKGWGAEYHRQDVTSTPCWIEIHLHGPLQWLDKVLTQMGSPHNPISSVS
row,Variant,effect of a mutation on the interaction
1,R361C,with no effect

# Variants of: B1
# Conditions: with smad2_human SMAD2, Q15796
row,Variant,effect of a mutation on the interaction
1,R361C,with no effect

# Variants of: B1
# Conditions: with smad3_human SMAD3, P84022
# Sequence of smad3_human SMAD3, P84022 (P84022 whole entry, looked up): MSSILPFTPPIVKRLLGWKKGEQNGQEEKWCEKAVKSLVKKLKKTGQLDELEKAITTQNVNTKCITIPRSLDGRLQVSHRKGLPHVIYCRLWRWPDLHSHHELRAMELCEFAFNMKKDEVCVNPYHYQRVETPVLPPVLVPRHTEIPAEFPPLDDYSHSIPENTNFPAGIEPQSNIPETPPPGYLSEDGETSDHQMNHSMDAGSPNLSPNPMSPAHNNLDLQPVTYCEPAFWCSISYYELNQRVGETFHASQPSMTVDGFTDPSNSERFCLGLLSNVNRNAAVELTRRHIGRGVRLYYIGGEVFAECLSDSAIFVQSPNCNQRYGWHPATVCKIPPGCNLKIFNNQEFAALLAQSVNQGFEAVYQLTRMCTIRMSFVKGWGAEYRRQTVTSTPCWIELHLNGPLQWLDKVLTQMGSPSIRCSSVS
row,Variant,effect of a mutation on the interaction
1,R361C,with no effect

# Variants of: B1
# Conditions: with smca4_human SMARCA4, P51532
row,Variant,effect of a mutation on the interaction
1,R361C,with no effect

# Variants of: B1
# Conditions: with snf5_human SMARCB1, Q12824
row,Variant,effect of a mutation on the interaction
1,R361C,with no effect

# Variants of: B1
# Conditions: with smo_human SMO
row,Variant,effect of a mutation on the interaction
1,R361C,with no effect

# Variants of: B1
# Conditions: with socs1_human SOCS1, O15524
row,Variant,effect of a mutation on the interaction
1,R361C,with no effect

# Variants of: B1
# Conditions: with sox10_human SOX10, P56693
row,Variant,effect of a mutation on the interaction
1,R361C,with no effect

# Variants of: B1
# Conditions: with sox2_human SOX2, P48431
row,Variant,effect of a mutation on the interaction
1,R361C,with no effect

# Variants of: B1
# Conditions: with sox3_human SOX3, P41225
row,Variant,effect of a mutation on the interaction
1,R361C,with no effect

# Variants of: B1
# Conditions: with sox4_human SOX4, Q06945
# Sequence of sox4_human SOX4, Q06945 (Q06945 whole entry): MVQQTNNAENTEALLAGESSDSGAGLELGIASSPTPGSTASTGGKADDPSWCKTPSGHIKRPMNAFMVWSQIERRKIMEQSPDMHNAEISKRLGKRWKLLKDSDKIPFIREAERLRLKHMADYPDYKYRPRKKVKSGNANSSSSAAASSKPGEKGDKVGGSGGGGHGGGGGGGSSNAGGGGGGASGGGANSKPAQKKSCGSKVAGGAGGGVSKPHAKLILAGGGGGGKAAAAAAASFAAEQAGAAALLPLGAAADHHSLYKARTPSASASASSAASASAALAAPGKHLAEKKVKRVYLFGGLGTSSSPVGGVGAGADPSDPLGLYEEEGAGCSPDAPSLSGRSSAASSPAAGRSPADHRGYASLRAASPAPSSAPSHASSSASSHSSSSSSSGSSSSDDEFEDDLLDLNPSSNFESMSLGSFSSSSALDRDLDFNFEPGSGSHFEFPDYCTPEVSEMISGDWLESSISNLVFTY
row,Variant,effect of a mutation on the interaction
1,R361C,with no effect

# Variants of: B1
# Conditions: with sox9_human SOX9, P48436
row,Variant,effect of a mutation on the interaction
1,R361C,with no effect

# Variants of: B1
# Conditions: with spop_human SPOP
row,Variant,effect of a mutation on the interaction
1,R361C,with no effect

# Variants of: B1
# Conditions: with src_human SRC
row,Variant,effect of a mutation on the interaction
1,R361C,with no effect

# Variants of: B1
# Conditions: with stat3_human STAT3, P40763
# Sequence of stat3_human STAT3, P40763 (P40763 whole entry): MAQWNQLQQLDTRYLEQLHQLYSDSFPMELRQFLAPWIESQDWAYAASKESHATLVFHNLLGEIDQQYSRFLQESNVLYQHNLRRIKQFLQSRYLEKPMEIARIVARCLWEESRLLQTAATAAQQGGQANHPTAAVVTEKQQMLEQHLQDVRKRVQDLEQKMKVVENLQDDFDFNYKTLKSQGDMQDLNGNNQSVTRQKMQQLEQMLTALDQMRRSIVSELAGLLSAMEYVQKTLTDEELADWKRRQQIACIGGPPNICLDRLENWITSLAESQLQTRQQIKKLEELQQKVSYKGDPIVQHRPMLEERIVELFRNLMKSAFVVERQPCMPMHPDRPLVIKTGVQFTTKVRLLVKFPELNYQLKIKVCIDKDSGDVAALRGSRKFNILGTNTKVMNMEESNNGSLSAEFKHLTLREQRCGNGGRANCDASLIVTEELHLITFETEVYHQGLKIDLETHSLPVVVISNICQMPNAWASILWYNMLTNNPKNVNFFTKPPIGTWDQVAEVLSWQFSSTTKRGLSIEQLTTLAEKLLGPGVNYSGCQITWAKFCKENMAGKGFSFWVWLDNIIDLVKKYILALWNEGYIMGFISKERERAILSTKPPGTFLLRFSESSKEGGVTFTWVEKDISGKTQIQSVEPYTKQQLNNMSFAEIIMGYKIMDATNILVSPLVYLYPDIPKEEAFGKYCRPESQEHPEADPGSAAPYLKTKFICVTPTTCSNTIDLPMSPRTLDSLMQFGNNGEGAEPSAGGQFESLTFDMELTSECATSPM
row,Variant,effect of a mutation on the interaction
1,R361C,with no effect

# Variants of: B1
# Conditions: with stk38_human STK38, Q15208
# Sequence of stk38_human STK38, Q15208 (Q15208 whole entry, looked up): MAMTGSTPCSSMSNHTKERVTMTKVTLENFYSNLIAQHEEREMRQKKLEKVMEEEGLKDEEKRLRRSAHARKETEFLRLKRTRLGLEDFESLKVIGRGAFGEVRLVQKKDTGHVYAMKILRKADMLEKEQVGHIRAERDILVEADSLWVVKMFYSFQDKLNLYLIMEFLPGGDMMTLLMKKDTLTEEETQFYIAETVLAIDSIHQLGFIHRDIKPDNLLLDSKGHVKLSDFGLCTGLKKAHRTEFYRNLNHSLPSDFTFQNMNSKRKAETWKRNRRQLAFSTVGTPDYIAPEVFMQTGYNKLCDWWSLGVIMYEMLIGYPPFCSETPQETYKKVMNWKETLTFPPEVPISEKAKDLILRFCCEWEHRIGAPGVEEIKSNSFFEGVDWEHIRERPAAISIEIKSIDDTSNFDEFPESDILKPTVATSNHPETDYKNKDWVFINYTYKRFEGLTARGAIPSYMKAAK
row,Variant,effect of a mutation on the interaction
1,R361C,with no effect

# Variants of: B1
# Conditions: with ksyk_human SYK
row,Variant,effect of a mutation on the interaction
1,R361C,with no effect

# Variants of: B1
# Conditions: with eloc_human ELOC
row,Variant,effect of a mutation on the interaction
1,R361C,with no effect

# Variants of: B1
# Conditions: with tfe2_human TCF3, P15923
row,Variant,effect of a mutation on the interaction
1,R361C,with no effect

# Variants of: B1
# Conditions: with tead1_human TEAD1, P28347
row,Variant,effect of a mutation on the interaction
1,R361C,with no effect

# Variants of: B1
# Conditions: with tead2_human TEAD2, Q15562
# Sequence of tead2_human TEAD2, Q15562 (Q15562 whole entry): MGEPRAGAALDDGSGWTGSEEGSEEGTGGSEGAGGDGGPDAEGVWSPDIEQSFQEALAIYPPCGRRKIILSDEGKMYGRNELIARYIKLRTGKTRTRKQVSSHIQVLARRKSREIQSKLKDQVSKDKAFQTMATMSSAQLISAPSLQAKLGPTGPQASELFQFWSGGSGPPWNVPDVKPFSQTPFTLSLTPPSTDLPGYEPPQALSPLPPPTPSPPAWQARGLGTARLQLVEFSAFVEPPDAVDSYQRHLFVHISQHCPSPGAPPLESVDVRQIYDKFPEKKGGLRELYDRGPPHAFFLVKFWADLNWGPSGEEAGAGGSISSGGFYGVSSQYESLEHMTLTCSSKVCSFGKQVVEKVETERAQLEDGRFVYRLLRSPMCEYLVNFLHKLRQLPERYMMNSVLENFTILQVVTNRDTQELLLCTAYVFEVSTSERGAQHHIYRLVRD
row,Variant,effect of a mutation on the interaction
1,R361C,with no effect

# Variants of: B1
# Conditions: with tead3_human TEAD3, Q99594
row,Variant,effect of a mutation on the interaction
1,R361C,with no effect

# Variants of: B1
# Conditions: with tgfr2_human TGFBR2, P37173
row,Variant,effect of a mutation on the interaction
1,R361C,with no effect

# Variants of: B1
# Conditions: with tnr14_human TNFRSF14, Q92956
row,Variant,effect of a mutation on the interaction
1,R361C,with no effect

# Variants of: B1
# Conditions: with tpx2_human TPX2, Q9ULW0
row,Variant,effect of a mutation on the interaction
1,R361C,with no effect

# Variants of: B1
# Conditions: with trrap_human TRRAP
row,Variant,effect of a mutation on the interaction
1,R361C,with no effect

# Variants of: B1
# Conditions: with tsc2_human TSC2, P49815
row,Variant,effect of a mutation on the interaction
1,R361C,with no effect

# Variants of: B1
# Conditions: with tshr_human TSHR
row,Variant,effect of a mutation on the interaction
1,R361C,with no effect

# Variants of: B1
# Conditions: with wt1_human WT1, P19544
# Sequence of wt1_human WT1, P19544 (P19544 whole entry): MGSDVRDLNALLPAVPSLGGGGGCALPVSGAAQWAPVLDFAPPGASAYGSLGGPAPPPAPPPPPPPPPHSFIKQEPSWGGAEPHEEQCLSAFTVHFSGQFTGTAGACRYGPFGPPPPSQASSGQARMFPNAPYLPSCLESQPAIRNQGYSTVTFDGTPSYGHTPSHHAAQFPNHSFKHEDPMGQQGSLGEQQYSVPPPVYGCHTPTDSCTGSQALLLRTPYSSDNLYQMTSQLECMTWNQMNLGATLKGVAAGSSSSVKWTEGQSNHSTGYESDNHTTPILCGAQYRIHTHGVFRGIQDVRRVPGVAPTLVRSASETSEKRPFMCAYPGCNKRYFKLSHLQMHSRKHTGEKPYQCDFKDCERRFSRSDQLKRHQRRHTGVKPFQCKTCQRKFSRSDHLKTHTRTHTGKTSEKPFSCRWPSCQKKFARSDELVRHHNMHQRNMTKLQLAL
row,Variant,effect of a mutation on the interaction
1,R361C,with no effect

# Variants of: B1
# Conditions: with wwtr1_human WWTR1, Q9GZV5
row,Variant,effect of a mutation on the interaction
1,R361C,with no effect

# Variants of: B1
# Conditions: with xpo1_human XPO1, O14980
# Sequence of xpo1_human XPO1, O14980 (O14980 whole entry): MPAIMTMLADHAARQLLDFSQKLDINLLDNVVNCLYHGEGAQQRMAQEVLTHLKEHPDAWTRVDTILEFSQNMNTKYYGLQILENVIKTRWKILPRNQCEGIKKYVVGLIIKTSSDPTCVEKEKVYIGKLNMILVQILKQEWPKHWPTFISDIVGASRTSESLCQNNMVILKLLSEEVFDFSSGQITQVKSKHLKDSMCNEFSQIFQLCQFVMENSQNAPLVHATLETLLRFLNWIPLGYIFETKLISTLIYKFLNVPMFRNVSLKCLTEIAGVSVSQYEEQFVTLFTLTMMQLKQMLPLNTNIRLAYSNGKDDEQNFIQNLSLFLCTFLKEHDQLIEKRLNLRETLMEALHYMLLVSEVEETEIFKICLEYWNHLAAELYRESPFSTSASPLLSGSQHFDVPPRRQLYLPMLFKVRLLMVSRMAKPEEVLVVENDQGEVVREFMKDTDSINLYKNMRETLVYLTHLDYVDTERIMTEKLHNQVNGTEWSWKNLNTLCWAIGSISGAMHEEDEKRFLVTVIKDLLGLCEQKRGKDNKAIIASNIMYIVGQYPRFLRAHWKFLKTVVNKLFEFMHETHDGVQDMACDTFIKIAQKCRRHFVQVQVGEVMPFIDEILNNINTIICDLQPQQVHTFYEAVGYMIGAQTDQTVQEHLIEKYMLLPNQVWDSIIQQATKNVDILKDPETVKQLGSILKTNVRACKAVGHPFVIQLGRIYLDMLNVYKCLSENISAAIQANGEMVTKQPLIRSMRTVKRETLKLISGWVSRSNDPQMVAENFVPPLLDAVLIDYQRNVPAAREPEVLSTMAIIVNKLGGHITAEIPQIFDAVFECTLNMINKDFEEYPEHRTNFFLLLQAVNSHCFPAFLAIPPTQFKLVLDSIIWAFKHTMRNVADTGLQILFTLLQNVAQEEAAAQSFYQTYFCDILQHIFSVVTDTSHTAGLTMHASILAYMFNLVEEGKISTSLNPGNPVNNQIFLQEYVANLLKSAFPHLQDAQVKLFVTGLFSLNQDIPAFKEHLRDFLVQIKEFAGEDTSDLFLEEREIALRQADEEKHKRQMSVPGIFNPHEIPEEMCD
row,Variant,effect of a mutation on the interaction
1,R361C,with no effect

# Variants of: B1
# Conditions: with 1433b_human YWHAB
row,Variant,effect of a mutation on the interaction
1,R361C,with no effect

# Variants of: B1
# Conditions: with 1433e_human YWHAE
row,Variant,effect of a mutation on the interaction
1,R361C,with no effect

# Variants of: B1
# Conditions: with 1433z_human YWHAZ
row,Variant,effect of a mutation on the interaction
1,R361C,with no effect

# Variants of: B1
# Conditions: with gata2_human GATA2, P23769
row,Variant,effect of a mutation on the interaction
1,R361C,decreasing interaction strength

# Variants of: B1
# Conditions: with smad3_human SMAD3, P84022
# Remark: another data set of the same source
row,Variant,effect of a mutation on the interaction
1,R361C,decreasing interaction strength

# Variants of: B1
# Conditions: with cdk6_human CDK6, Q00534
row,Variant,effect of a mutation on the interaction
1,R361C,decreasing interaction strength
